As a reminder, the EC50 is the midpoint of the concentration-response curve. Read a low EC50 as a more potent agent.

The target of experiment [1] is 生物素化的IL-17A (ACRO Biosystems kit EP-139) (UniProt Q16552). The experiment can be described thus: competition ELISA kit (ACRO EP-139); IL-17RA coated, biotinylated IL-17A, supernatant diluted 5-fold; inhibition of IL-17A/IL-17RA binding.
The target in experiment [2] is T1, IL-17A重组蛋白(抗原), C端6×His标签 (human, UniProt Q16552 24-155, limits assumed, biotin in the ELISA of paragraph 227 (Biotin-IL-17A-His); site not stated).
T1 construct: Expressed in E. coli BL21 from pET28a and purified on a nickel column; also called IL-17A-His; Biotin-IL-17A-His
T1 sequence: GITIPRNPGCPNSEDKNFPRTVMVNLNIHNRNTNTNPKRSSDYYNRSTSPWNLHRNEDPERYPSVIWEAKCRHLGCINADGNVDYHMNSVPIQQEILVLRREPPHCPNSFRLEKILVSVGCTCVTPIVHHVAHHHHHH
The experiment can be described thus: ELISA; antibody coated at 2 ug/mL, Biotin-IL-17A-His titrated from 10 ug/mL in 5-fold steps, HRP-streptavidin. (In general: ELISA stands for enzyme-linked immunosorbent assay.)

The target of experiment [3] is T1, IL-17A重组蛋白(抗原), C端6×His标签. The experiment can be described thus: cell-based or functional assay.

B1: G4-H10:Fc融合蛋白 (IL-17Nb secreted by G4-H10-MSC; VHH-(GGGGS)3-VHH-IgG4 Fc) (Fc fusion)
chain: QVQLVESGGGLVQPGGSLRLSCAASGEKLDYFAIGWFRQAPGKEREVVSCVTSSGSSTNYLSSVKDRFTISIDNAKNTVYLQMNSLKPEDTAIYYCASTILLCSDYISAFGTWGQGTQVTVASGGGGSGGGGSGGGGSEVQLVESGGGLVQPGGSLRLSCAASGFSIHIYAMGWYRQAPGKQRELVATITRGGVTNNADSVKGRFTISRDNAKNTAYLQMNSLKPEDTAVYYCNAGGTNGGYWGQGTQVTVSSAPEFLGGPSVFLFPPKPKDTLMISRTPEVTCVVVDVSQEDPEVQFNWYVDGVEVHNAKTKPREEQFNSTYRVVSVLTVLHQDWLNGKEYKCKVSNKGLPSSIEKTISKAKGQPREPQVYTLPPSQEEMTKNQVSLTCLVKGFYPSDIAVEWESNGQPENNYKTTPPVLDSDGSFFLYSRLTVDKSRWQEGNVFSCSVMHEALHNHYTQKSLSLSLGK
The molecule B1 showed a 结合抑制率 in experiment [1] of 60%.

B2: 阳性对照抗体依奇珠单抗 (Ixekizumab) (antibody, human IgG4 S228P, kappa, V domains shown)
VH: QVQLVQSGAEVKKPGSSVKVSCKASGYSFTDYHIHWVRQAPGQGLEWMGVINPMYGTTDYNQRFKGRVTITADESTSTAYMELSSLRSEDTAVYYCARYDYFTGTGVYWGQGTLVTVSS
VL: DIVMTQTPLSLSVTPGQPASISCRSSRSLVHSRGNTYLHWYLQKPGQSPQLLIYKVSNRFIGVPDRFSGSGSGTDFTLKISRVEAEDVGVYYCSQSTHLPFTFGQGTKLEIKR
notes: also called 阳性抗体
Molecule B2 yielded an EC50 in experiment [2] of 10.1 µg/mL. Also, the “阻断Human IL-17A蛋白激活293F-IL-17RA-IL-17Rc-ACT1-NFκB-Luc, IC50” value in experiment [3] amounted to 2.23 nM.
